# Laboratory results from publication PMC3410904.
# Assays:
# [1] = target: CSL^F235L (residues 10-436 of human isoform 1, myc/his) (human) (UniProt Q06330)
# [2] = target: CSL (residues 10-436 of human isoform 1, myc/his) (human) (UniProt Q06330)
# CSL BTD (Homo sapiens) = CSL BTD (Homo sapiens) (UniProt Q06330); conditions: cited from earlier work
# [3] = target: CAN (CSL-ANKNLS) fusion protein (human) (UniProt Q06330)
# [4] = target: CSL (residues 10-436 of human isoform 1, myc/his) (human) (UniProt Q06330); remark: listed apart in the source
# [5] = target: CAN (CSL-ANKNLS) fusion protein (human) (UniProt Q06330); remark: listed apart in the source
# [6] = target: CSL (residues 10-436 of human isoform 1, myc/his) (human) (UniProt Q06330); remark: listed apart in the source
substance,measurement,setting,value
NICD* (full-length NICD with xWxP to A4) (domain or fragment),TP1-luc luciferase reporter in OT11 cells; NICD* co-transfected with CSL^F235L; fold activation,[1],38 fold
same,TP1-luc luciferase reporter in OT11 cells; NICD* co-transfected with CSL; fold activation,[2],4 fold
Notch intracellular domain RAM region RAM (from UniProt P46531),Kd,CSL BTD (Homo sapiens),100 nM
RAM (human Notch1 residues 1758-1878) (from UniProt P46531 1758-1878) (domain or fragment),TP1-luc luciferase reporter in OT11 cells; RAM co-transfected with CAN; fold over CAN alone,[3],6 fold
same,TP1-luc luciferase reporter in OT11 cells; RAM and ANKNLS in trans co-transfected with CSL; fold activation,[4],9 fold
dominant-negative form of MAML (dnMAML) (domain or fragment),"TP1-luc luciferase reporter in OT11 cells; CAN co-transfected with RAM and 1 to 30 ng dnMAML plasmid; percent of maximal (uninhibited) activation, nearly 0% at 30 ng (% of maximal activation)",[5],25
same,"TP1-luc luciferase reporter in OT11 cells; CSL co-transfected with … and 1 to 30 ng dnMAML plasmid; percent of maximal (uninhibited) activation, nearly 0% at 30 ng (% of maximal activation)",[6],30
full-length NICD (human Notch1 intracellular domain) (domain or fragment),TP1-luc luciferase reporter in OT11 cells; NICD co-transfected with CSL^F235L; fold activation,[1],94 fold
same,TP1-luc luciferase reporter in OT11 cells; NICD co-transfected with CSL; fold activation,[2],100 fold
… (human Notch1 residues 1758-2174) (from UniProt P46531 1758-2174) (domain or fragment),TP1-luc luciferase reporter in OT11 cells; … co-transfected with CSL; fold over empty vector,[4],24 fold
